Patent publication US20050277762A1 (published 2005)

Experiments:
[1] = target: T1, ubiquitin aldehyde (Ubal) (UniProt P0CG47 1-76, C-terminal residue as aldehyde); experiment: competition: lysate pre-treated with Ubal, then [^125I]-UbVS labeling
[2] = target: T1, ubiquitin aldehyde (Ubal); experiment: competition: wild type yeast lysate pre-incubated with increasing Ubal, then [^125I]-UbVS labeling
Text: Reactions were quenched with sample buffer, resolved by 10% SDS-PAGE and analyzed by autoradiography. Identity of bands was assigned based on the absence of a band corresponding to the molecular weight of a DUB deleted in that strain.

binding result [1] | binding result [2] | Binder
binds |  | USP14 (TGT) (enzyme, mouse (EL-4 cell lysate), UniProt Q9JMA1 1-493, looked up, also called p58) MPLYSVTVKWGKEKFEGVELNTDEPPMVFKAQLFALTGVQPARQKVMVKGGTLKDDDWGNIKMKNGMTVLMMGSADALPEEPSAKTVFVEDMTEEQLATAMELPCGLTNLGNTCYMNATVQCIRSVPELKDALKRYAGALRASGEMASAQYITAALRDLFDSMDKTSSSIPPIILLQFLHMAFPQFAEKGEQGQYLQQDANECWIQMMRVLQQKLEAIEDDSGRETDSSSAPAVTPSKKKSLIDQYFGVEFETTMKCTESEEEEVTKGKENQLQLSCFINQEVKYLFTGLKLRLQEEITKQSPTLQRNALYIKSSKISRLPAYLTIQMVRFFYKEKESVNAKVLKDVKFPLMLDVYELCTPELQEKMVSFRSKFKDLEDKKVNQQPNANDKNSPPKEIKYEPFSFADDIGSNNCGYYDLQAVLTHQGRSSSSGHYVSWVRRKQDEWIKFDDDKVSIVTPEDILRLSGGGDWHIAYVLLYGPRRVEIMEEESEQ
 | binds | Ubp2 (enzyme, S. cerevisiae, UniProt Q01476 1-1272, looked up, also called Ubp2p) MPNEDNELQKAIENHHNQLLNQDKENADRNGSVIEDLPLYGTSINQQSTPGDVDDGKHLLYPDIATNLPLKTSDRLLDDILCDTIFLNSTDPKVMQKGLQSRGILKESMLSYSTFRSSIRPNCLGSLTDQVVFQTKSEYDSISCPKYNKIHVFQAVIFNPSLAEQQISTFDDIVKIPIYHLKVSVKVRQELERLKKHVGVTQFHSLDHLHEYDRVDLSTFDSSDPNLLDYGIYVSDDTNKLILIEIFKPEFNSPEEHESFTADAIKKRYNAMCVKNESLDKSETPSQVDCFYTLFKIFKGPLTRKSKAEPTKTIDSGNLALNTHLNPEWLTSKYGFQASSEIDEETNEIFTEYVPPDMVDYVNDLETRKIRESFVRKCLQLIFWGQLSTSLLAPNSPLKNTKSVKGMSSLQTSFSTLPWFHLLGESRARILLNSNEQTHSPLDAEPHFINLSVSHYYTDRDIIRNYESLSSLDPENIGLYFDALTYIANRKGAYQLIAYCGKQDIIGQEALENALLMFKINPKECNISELNEATLLSIYKYETSNKSQVTSNHLTNLKNALRLLAKYTKSDKLKFYVDHEPYRALSQAYDTLSIDESVDEDIIKTAYSVKINDSPGLKLDCDRALYTIAISKRSLDLFNFLTEECPQFSNYYGPEKLDYQEALKLLQVNENASDETILKIFKQKWFDENVYEPDQFLILRAALTKISIERNSTLITNFLLTGTIDPNSLPPENWPTGINNIGNTCYLNSLLQYYFSIAPLRRYVLEYQKTVENFNDHLSNSGHIRRIGGREISRGEVERSIQFIYQLRNLFYAMVHTRERCVTPSKELAYLAFAPSNVEVEFEVEGNKVVDQTGVLSDSKKETTDDAFTTKIKDTSLIDLEMEDGLNGDVGTDANRKKNESNDAEVSENEDTTGLTSPTRVAKISSDQLENALEMGRQQDVTECIGNVLFQIESGSEPIRYDEDNEQYDLVKQLFYGTTKQSIVPLSATNKVRTKVERFLSLLINIGDHPKDIYDAFDSYFKDEYLTMEEYGDVIRTVAVTTFPTILQVQIQRVYYDRERLMPFKSIEPLPFKEVIYMDRYADTENPLLLAKKKETEEMKQKLKVMKNRQRELLSRDDSGLTRKDAFLESIKLLESDTIKKTPLKIEAANDVIKTLRNNVQNIDNELMKLYNDINSLEEKISHQFDDFKEYGYSLFSVFIHRGEASYGHYWIYIKDRNRNGIWRKYNDETISEVQEEEVFNFNEGNTATPYFLVYVKQGQEGDIEPLKRILK
 | binds | Yuh1 (enzyme, S. cerevisiae, UniProt P35127 1-236, looked up, also called Yuh1p) MSGENRAVVPIESNPEVFTNFAHKLGLKNEWAYFDIYSLTEPELLAFLPRPVKAIVLLFPINEDRKSSTSQQITSSYDVIWFKQSVKNACGLYAILHSLSNNQSLLEPGSDLDNFLKSQSDTSSSKNRFDDVTTDQFVLNVIKENVQTFSTGQSEAPEATADTNLHYITYVEENGGIFELDGRNLSGPLYLGKSDPTATDLIEQELVRVRVASYMENANEEDVLNFAMLGLGPNWE
 | binds | Ubp1 (enzyme, S. cerevisiae, UniProt P25037 1-809, looked up, also called Ubp1p) MDLFIESKINSLLQFLFGSRQDFLRNFKTWSNNNNNLSIYLLIFGIVVFFYKKPDHLNYIVESVSEMTTNFRNNNSLSRWLPRSKFTHLDEEILKRGGFIAGLVNDGNTCFMNSVLQSLASSRELMEFLDNNVIRTYEEIEQNEHNEEGNGQESAQDEATHKKNTRKGGKVYGKHKKKLNRKSSSKEDEEKSQEPDITFSVALRDLLSALNAKYYRDKPYFKTNSLLKAMSKSPRKNILLGYDQEDAQEFFQNILAELESNVKSLNTEKLDTTPVAKSELPDDALVGQLNLGEVGTVYIPTEQIDPNSILHDKSIQNFTPFKLMTPLDGITAERIGCLQCGENGGIRYSVFSGLSLNLPNENIGSTLKLSQLLSDWSKPEIIEGVECNRCALTAAHSHLFGQLKEFEKKPEGSIPEKLINAVKDRVHQIEEVLAKPVIDDEDYKKLHTANMVRKCSKSKQILISRPPPLLSIHINRSVFDPRTYMIRKNNSKVLFKSRLNLAPWCCDINEINLDARLPMSKKEKAAQQDSSEDENIGGEYYTKLHERFEQEFEDSEEEKEYDDAEGNYASHYNHTKDISNYDPLNGEVDGVTSDDEDEYIEETDALGNTIKKRIIEHSDVENENVKDNEELQEIDNVSLDEPKINVEDQLETSSDEEDVIPAPPINYARSFSTVPATPLTYSLRSVIVHYGTHNYGHYIAFRKYRGCWWRISDETVYVVDEAEVLSTPGVFMLFYEYDFDEETGKMKDDLEAIQSNNEEDDEKEQEQKGVQEPKESQEQGEGEEQEEGQEQMKFERTEDHRDISGKDVN
 | binds | Ubp6 (enzyme, S. cerevisiae, UniProt P43593 1-499, looked up, also called Ubp6p) MSGETFEFNIRHSGKVYPITLSTDATSADLKSKAEELTQVPSARQKYMVKGGLSGEESIKIYPLIKPGSTVMLLGTPDANLISKPAKKNNFIEDLAPEQQVQQFAQLPVGFKNMGNTCYLNATLQALYRVNDLRDMILNYNPSQGVSNSGAQDEEIHKQIVIEMKRCFENLQNKSFKSVLPIVLLNTLRKCYPQFAERDSQGGFYKQQDAEELFTQLFHSMSIVFGDKFSEDFRIQFKTTIKDTANDNDITVKENESDSKLQCHISGTTNFMRNGLLEGLNEKIEKRSDLTGANSIYSVEKKISRLPKFLTVQYVRFFWKRSTNKKSKILRKVVFPFQLDVADMLTPEYAAEKVKVRDELRKVEKEKNEKEREIKRRKFDPSSSENVMTPREQYETQVALNESEKDQWLEEYKKHFPPNLEKGENPSCVYNLIGVITHQGANSESGHYQAFIRDELDENKWYKFNDDKVSVVEKEKIESLAGGGESDSALILMYKGFGL
 | binds | Ubp15 (enzyme, S. cerevisiae, UniProt P50101 1-1230, looked up, also called Ubp15p) MSSEDELGSIGTVFPGSPIDKSIGSILPQFDEEVETLLEDSFTWNIPDWNELTNPKYNSPRFRIGDFEWDILLFPQGNHNKGVAVYLEPHPEEKLDETTGEMVPVDPDWYCCAQFAIGISRPGNGDTINLINKSHHRFNALDTDWGFANLIDLNNLKHPSKGRPLSFLNEGTLNITAYVRILKDPTGVLWHNFLNYDSKKVTGYVGFRNQGATCYLNSLLQSYFFTKYFRKLVYEIPTEHESPNNSVPLALQRAFYQLQVSDIPLDTLELTRSFGWDTAESFTQHDVQELNRILMDRLENNMKGTPVEGKLNEIFVGKMKSYIKCINVDYESARVEDFWDLQLNVKNFKNLQESFDNYIEMELMNGENQYAAQDYGLQDAQKGVIFESFPPVLHLQLKRFEYDFNYDQMVKVNDKYEFPETIDLSPFVDKDVLKKTLDSENKDKNPYVYNLHGVLVHSGDISTGHYYTLIKPGVEDQWYRFDDERVWRVTKKQVFQENFGCDRLPDEKVRTMTRGEYQNYIIQRHTSAYMLVYIRQEQEEDLLRPVLESDVPKHVITRVREEIKERETKEKEIREAHLYVTLRLHSIKEFIHYEGFDYFAHDGFRLFAEELNDSGLQQINLKVLRTTKLSDIFASIKETMNIPQERDVKYWKMDYRRNSTLRLTQPINFESVNITLQEALKKEKKRTMQTQYGEEGVASTEEDDKALLETVSFLDLFIEEPYLELQFLNKLKEASLISKAQLDDELISTIRTNLPELTKGGIEPVFATDNKSNLLFVKSYDPHTQKLLGFGHFAVNQLQQLSDISAIIEDSISSNEKLTFYEEVQPGTINEIYMKETIYDADIDTGDIVSFEVPGAVLPDTFPVYATIKDFYSYLRYRVKLKFSKFDGSSEEYGVSNEIPESFEFWISAYAPYDDLARMVSKYAHVKPEYLKIIALYSNGRFVLKSTSLLNDYLLKDFNCDQIPPFAFEVLSVPLKELERLRPIKLYWLKNSYIHYQCFEFEVANDYTESQFLEKVQHKIGFTDEEKENILLWTNTNFQFQGLLSDQNTFKDVSKHSLLFGRILPEESKLFKELNRLENVQTSSLEDFMDDENATDRPMDDEQDLGMAIEHSEDMKGRIVVVQQYFKDLENRHGISFLFNLIPDETFPKTKDRLHAKFGLGQKEFSKIKLSIGYSTEEGTVFRSLQGFSDEELDKVILYDIMSNLDYIYMDHPDRLRSHSSYDRPMIIKN
